Results: the supplement of paper PMC10567573

B1: SFRS1 (parent)
chain: YSPRRSRGSPRYSPRHSRSRSRT
B2: VAMP4 (parent)
chain: IMALVAAILLLVIIILIVMKYRT

Variants of: B1
Experiment: protein stability index of a GFP-peptide fusion (GPS, HEK-293T) (PSI 1-6); higher = more stable
Settings: c terminus: native
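Further: lentivirally expressed fusions sorted by FACS into six bins by GFP to DsRed ratio, PSI derived from sequencing read proportions per bin multiplied by bin number.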

Protein stability index of substitutions, site by site:
R18: E 2.44, C 2.61, D 2.77, A 3.64
Y1: V 4.65, Q 4.55, P 4.55, F 2.96, N 5.03, E 3.92, G 4.65, M 3.9, I 4.17, R 5.25, L 3.74, C 3.99, H 4.86, D 3.9, W 4.08, A 4.29, T 4.43, K 4.1, S 4.36
S13: E 4.01, Y 3.13, P 3.55, T 3.63, H 3.62, K 4.64, F 3.59, Q 3.76, G 4.41, A 3.41, L 3.89, D 3.72, N 3.64, W 2.9, I 3.71, R 4.11, M 3.82, V 3.37, C 1.35
S9: D 3.99, Y 3.43, G 4.24, F 3.35, A 3.94, C 1.83, K 3.83, Q 4.24, H 3.16, V 3.8, E 3.71, L 3.38, I 3.1, M 3.07, P 3.86, W 2.29, T 3.74, N 4.23, R 4.37
P10: I 3.41, F 3.07, E 3.6, A 4, R 4.2, S 4.35, Q 3, L 3.61, H 4.38, D 4.25, Y 3.67, G 3.37, M 3.73, C 3.45, W 3.4, N 4.31, K 4.4, T 4.51, V 3.69
R4: S 3.56, Q 3.53, D 2.74, V 3.24, I 2.65, G 3.82, F 2.57, P 3.36, A 2.82, H 3.29, C 2.28, W 2.38, Y 2.56, N 3.13, T 2.83, M 2.76, E 3.12, K 3.71, L 2.76
S6: M 3.56, D 3.83, H 3.66, G 3.55, I 3.22, K 3.01, Q 4.33, L 2.65, E 3.26, A 4.13, Y 3.29, P 4.39, F 3.27, N 3.97, V 3.09, T 4.02, R 4.01, C 2.81, W 3.43
P3: E 4.18, I 2.8, K 3.56, H 4.16, L 3.8, V 4.06, W 3.11, A 3.81, S 4.21, R 4.27, Y 4.24, N 4.15, C 3.4, M 3.58, F 3.91, D 4.51, G 4.3, T 4.22, Q 3.72
R7: D 3.22, V 2.24, I 1.66, Q 3.54, A 2.97, W 1.95, N 2.92, H 2.61, K 3.77, T 3.13, P 2.91, S 3.4, Y 3.38, G 2.47, L 2.03, M 2.47, C 1.95, F 2.43, E 2.15
P14: N 4.28, H 4.16, Y 3.64, G 4.46, E 4.04, S 3.54, A 4.03, D 3.46, R 4.48, L 3.56, M 3.52, V 4.03, C 1.97, W 3.22, F 3.21, K 4.57, I 4.15, T 3.89
R5: C 2.92, V 2.87, Q 3.5, D 3.53, E 3.54, S 3.76, N 3.24, G 3, W 1.84, H 4.37, M 3.58, F 2.52, L 2.58, P 2.75, Y 3.01, T 2.8, A 3.98, K 3.14, I 2.33
H16: Y 4.45, W 3.14, T 4.27, P 4.35, Q 4.02, R 4.5, L 4.35, V 3.93, E 3.47, M 3.95, A 4.81, F 3.83, C 3.96, N 4.1, G 4.31, K 4.35, I 3.95, S 4.5, D 4.05
S17: N 3.81, V 3.73, R 4.49, E 3.9, P 4.19, L 3.69, T 4.05, A 4.15, I 4.04, C 4, Q 4, K 4.35, H 3.77, G 3.53, M 4.06, F 4.13, W 3.69, Y 3.6, D 3.75
R15: S 3.82, C 2.64, P 2.12, H 4.39, M 3.48, F 2.17, G 3.9, A 3.36, E 3.56, D 3.16, T 2.58, Q 3.39, L 3, V 2.65, I 3.05, K 3.98, N 3.34, Y 3.06
S2: L 4.2, K 3.9, R 4.84, P 3.71, M 3.77, Q 3.98, V 1.85, G 4.27, D 4.09, E 4.12, C 1.94, Y 3.62, F 3.52, W 4.07, T 3.19, H 2.75, I 3.27, A 2, N 3.54
Y12: D 4.38, S 4.17, T 4.27, V 4.18, W 4.43, A 3.89, R 4.25, I 3.72, F 3.7, P 3.99, L 4.03, M 3.62, E 4.47, C 3.61, Q 4.43, K 3.73, N 4.21, H 3.28
R11: C 2.36, I 2.73, Q 4.39, K 3.85, A 3.25, V 3.05, T 3.29, L 2.85, E 2.39, Y 2.54, F 2.8, M 3.47, G 3.5, N 3.98, D 2.31, S 3.3, H 3.22, P 3.44, W 1.79
G8: P 3.5, L 3, H 3.55, S 4.32, R 4.58, K 3.98, C 2.98, A 4.22, W 2.25, T 3.79, F 2.13, Q 3.53, I 3.46, Y 3.05, E 3.44, V 3.31, M 3.19, N 3.7, D 3.45

Variants of: B2
Experiment: as above
Settings: c terminus: native

Protein stability index of substitutions, site by site:
A3: K 3.28
L4: A 3.08, W 3.59
I13: H 2.94
A6: V 3.23, S 3.71
M2: H 2.4
L10: I 3.35, F 3.43
V5: E 2.42
